Target: FKBP1A (UniProt P62942)
Experiment: co-precipitation from transfected Jurkat cells
Details: reference: WT TGFβRI; sites T200

binding against the reference: stronger
Substance: TGFβRI (from UniProt P36897) T200V TGFβRI
